The source of these data is patent US20260297200 (published 2026).

Usually EC50 stands for the concentration that produces a half-maximal response. High values mean lower potency in that assay, low ones higher potency in that assay.

One experiment deals with T1, mouse EGFR-His (mouse).
T1 chain: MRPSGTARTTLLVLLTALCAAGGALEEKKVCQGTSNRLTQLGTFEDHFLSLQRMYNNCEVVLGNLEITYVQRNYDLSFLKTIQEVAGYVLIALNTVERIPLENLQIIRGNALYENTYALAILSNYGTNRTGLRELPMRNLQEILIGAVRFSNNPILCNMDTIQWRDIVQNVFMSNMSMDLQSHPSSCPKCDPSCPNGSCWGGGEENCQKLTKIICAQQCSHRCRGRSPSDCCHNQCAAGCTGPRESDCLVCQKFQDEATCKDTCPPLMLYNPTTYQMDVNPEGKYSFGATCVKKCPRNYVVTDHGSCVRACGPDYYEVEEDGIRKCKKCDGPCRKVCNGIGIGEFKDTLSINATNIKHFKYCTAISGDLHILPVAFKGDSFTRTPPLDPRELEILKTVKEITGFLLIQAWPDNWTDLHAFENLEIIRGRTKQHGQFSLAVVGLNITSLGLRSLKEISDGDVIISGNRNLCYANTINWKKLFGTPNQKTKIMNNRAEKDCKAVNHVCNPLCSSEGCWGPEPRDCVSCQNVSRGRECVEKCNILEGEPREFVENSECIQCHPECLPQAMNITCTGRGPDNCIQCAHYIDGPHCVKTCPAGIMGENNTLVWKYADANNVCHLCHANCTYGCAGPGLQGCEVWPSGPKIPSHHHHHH
The experiment is described as follows: ELISA, 10 nM. (In general: An ELISA detects its analyte on a solid surface through an enzyme-linked reagent.)

The target of a further experiment is EGFR-moFc S442R (human). Put plainly: ELISA.
The next experiment has as its target MET-huFc (human). The experiment is described as follows: ELISA.
The target of experiment [1] is T2, human EGFR on cells (human, UniProt P00533). The experiment is described as follows: FACS, HCT-116. In general terms: In flow cytometry, cells or beads pass a laser one at a time.
The target of experiment [2] is T2, human EGFR on cells. The experiment is described as follows: FACS, FaDu.
In experiment [3] the target is T2, human EGFR on cells. Put plainly: FACS, FaDu. This is another data set of the same source.
The target of experiment [4] is T2, human EGFR on cells. Put plainly: FACS, SW620.

B1: Panitumumab (antibody, V domains shown)
VH: QVQLQESGPGLVKPSETLSLTCTVSGGSVSSGDYYWTWIRQSPGKGLEWIGHIYYSGNTNYNPSLKSRLTISIDTSKTQFSLKLSSVTAADTAIYYCVRDRVTGAFDIWGQGTMVTVSS
VL: DIQMTQSPSSLSASVGDRVTITCQASQDISNYLNWYQQKPGKAPKLLIYDASNLETGVPSRFSGSGSGTDFTFTISSLQPEDIATYFCQHFDHLPLAFGGGTKVEIKR
Turning to B1, in the experiment with mouse EGFR-His, the binding result is reported as “no binding”.

B2: Necitumumab (antibody, V domains shown)
VH: QVQLQESGPGLVKPSQTLSLTCTVSGGSISSGDYYWSWIRQPPGKGLEWIGYIYYSGSTDYNPSLKSRVTMSVDTSKNQFSLKVNSVTAADTAVYYCARVSIFGVGTFDYWGQGTLVTVSS
VL: EIVMTQSPATLSLSPGERATLSCRASQSVSSYLAWYQQKPGQAPRLLIYDASNRATGIPARFSGSGSGTDFTLTISSLEPEDFAVYYCHQYGSTPLTFGGGTKAEIKR
Turning to B2, the binding result in the experiment with EGFR-moFc S442R was “no binding”.

B3: eIg 1+1 H10x5D5 MET arm (antibody, V domains shown)
VH: EVQLVESGGGLVQPGGSLRLSCAASGYTFTSYWLHWVRQAPGKGLEWVGMIDPSNSDTRFNPNFKDRFTISADTSKNTAYLQMNSLRAEDTAVYYCATYRSYVTPLDYWGQGTLVTVSS
VL: DIQMTQSPSSLSASVGDRVTITCKSSQSLLYTSSQKNYLAWYQQKPGKAPKLLIYWASTRESGVPSRFSGSGSGTDFTLTISSLQPEDFATYYCQQYYAYPWTFGQGTKVEIKR
Take B3: the EC50 with MET-huFc was 4.1 nM.

B4: Fab-eIg YU250-H10xhuU3 EGFR arm (antibody)
chain 1: QVQLVQSGGGVVQPGGSLRLSCAASGFTFSSYGMHWVRQAPGKGLEWVAFIRYDGSNKYYADSVKGRFTISRDNSKNTLYLQMNSLRAEDTAVYYCAKDGNSGYDSMDYWGQGTLVTVSS
chain 2: QSVLTQPPSVSGAPGQRVTISCSGGSSNVGRNGVNWFQHLPEKAPKLLIYYDAFLSSGVSDRFSGSKSGTSASLAIRGLQSDDEADYYCAAWDDSLYSWVFGGGTNLTVL
On to B4, for which the 50% effective concentration (EC50) is 0.13 nM with human EGFR on cells [1], 0.76 nM with human EGFR on cells [2], 0.32 nM in the experiment with human EGFR on cells [3] and 0.03 nM in the experiment with human EGFR on cells [4].
